Measurements as given in paper PMC4263763, “Crystal Structure of Calcium Binding Protein-5 from Entamoeba histolytica and Its Involvement in Initiation of Phagocytosis of Human Erythrocytes” (PLoS Pathogens, 2014).
Several values for one entry are separate records, joined by “and”; a condition that tells them apart may be missing. Identical values can stand only once. Entries after “also recorded” stand apart in the source; their conditions may differ.

What was measured:
EhCaBP5 [1] = experiment: SPR binding of native and mutated IQ motif peptides (analyte) to immobilized EhCaBP5 (model validation); design: species or system Entamoeba histolytica; settings: peptide as analyte, 25°C
Procedure: To validate EhCaBP5-IQ motif complex model, we obtained commercially synthesized two mutated Myosin 1B IQ motif peptide IQ-M1 A*A*KAWKGYRNRKR (where IQ is mutated to AA) and IQ-M2 IQKAWKGYD*ND*KD* (Where R is mutated to D). The EhCaBP5 was immobilized on sensor chip up to 500 resonance units and native myosin 1B IQ motif peptide and mutated IQ motif peptide were passed as analyte at concentration of […]. The data were recorded at 25°C and data analysis was performed using Biacore […] SPR Kinetics evaluation software.

[2] = molecular target: IQ motif peptide of myosin 1B (native) (Entamoeba histolytica); experiment: SPR
[3] = molecular target: Entamoeba histolytica calcium binding protein-5 (EhCaBP5), recombinant (Entamoeba histolytica); experiment: SPR; EhCaBP5 immobilised on sensor chip up to 500 RU; native and mutated IQ motif peptides as analyte at 25, 50, 75, 100 and 125 mM (so in the source); 25°C
EhCaBP5 [4] = experiment: SPR binding of EhCaBP5 (analyte) to immobilized myosin IQ motif peptides; design: species or system Entamoeba histolytica; settings: Biacore T200, peptide immobilized (2000 RU, CM4 chip), EhCaBP5 as analyte, pH 7.4
Description: The E. histolytica genome codes for two myosin, myosin I (accession number EAL48894) and myosin II (accession number EAL51645). Myosin I has one IQ motif and myosin II has two IQ motifs. To check the interaction between EhCaBP5 and myosin IQ motifs, we commercially synthesized (obtained) peptides of IQ motif of myosin 1B (unconventional myosin) (IQKAWKGYRNRKR) and second IQ motif of heavy chain myosin (myosin II) ([…]), which is expected to bind to ELC. For the binding study we used Biacore T200 apparatus (Biacore, GE Healthcare) at National Institute of Plant and Genome Research New Delhi, India. A total of 2000 resonance units (RU) of peptides were immobilized on a research grade S series CM4 sensor chip in 10 mM sodium acetate, pH 5.0 according to the manufacturer's amine coupling kit. After peptide immobilization, the surface was blocked with 1 M ethanolamine at pH 8.5, followed by regeneration using 50 mM NaOH. The interaction experiments were performed using buffer containing 10 mM HEPES pH 7.4, 150 mM NaCl and 0.2 mM Calcium chloride. We also performed interaction experiment in absence of Ca^2+ and supplementing 5 mM of EGTA in the above buffer. […] The association kinetics for EhCaBP5 was monitored for 300 seconds and dissociation was monitored for the next 300 seconds.

F-actin = experiment: Co-sedimentation assay with F-actin; type: binding; settings: in vitro, pellet fraction containing F-actin
myosin 1B = experiment: Co-immunoprecipitation of myosin 1B from total cell lysate; type: binding, Entamoeba histolytica; settings: immobilized anti-EhCaBP5 antibody, 800 µg E. histolytica lysate, 6 h at 4°C, with EGTA; western blot
Procedure: Immunoprecipitation was carried out as described previously. Briefly, CNBr-activated Sepharose-4B beads (Pharmacia) were conjugated with anti-EhCaBP5 antibody. Crude immunoglobulins were collected from the immunized serum using 40% ammonium sulphate and subsequently dialysed in coupling buffer (bicarbonate buffer). Usually, 10 mg immunoglobulin protein was added per gram of CNBr-activated Sepharose-4B beads. The resin was mixed gently for 18 h at 4°C. The conjugated Sepharose beads were incubated with E. histolytica lysate for 6 h at 4°C. The beads were then washed thrice with wash buffer (10 mM Tris-Cl (pH 7.5), 150 mM NaCl, 1 mM imidazole, 1 mM magnesium acetate, 2 mM β-ME and protease inhibitor cocktail). Ca^2+ and EGTA were maintained throughout the process as required. After incubation the beads were washed sequentially with 60 mM Tris-Cl (pH 6.8), 100 mM NaCl and with 60 mM Tris-Cl (pH 6.8). The pellet was suspended in 2× SDS polyacrylamide gel electrophoresis (PAGE) buffer and boiled for 5 min followed by centrifugation for 5 min. The proteins were then analysed by western blotting.

[5] = ITC; ref [17]; cited from earlier work
Description: Overall, the molecule is divided in two globular lobes, where each lobe has four alpha helices connected by loops. The N-terminal lobe has one EF-hand motif with a calcium ion bound to the loop between two helices. The C-terminal lobe has two small anti-parallel beta strands along with four loops (Fig. 1A). Signature residues of an additional EF-hand motif are found in the C-terminal lobe (residues87 to 98). In the crystal structure these residues form a loop between two helices similar to that of a typical EF-hand but density for Ca^2+ is not observed. Consistent with the crystals structure, ...

A*A*KAWKGYRNRKR [IQ-M1, mutated Myosin 1B IQ motif peptide IQ-M1 (where IQ is mutated to AA)]
change in Kd versus native peptide (in words) (EhCaBP5 [1]): could not find any significant change in Kd value

Entamoeba histolytica calcium binding protein-5 (EhCaBP5), recombinant (natural protein)
Kd [2]: 2.4 nM and 5.4 nM

IQ motif peptide of myosin 1B (native)
Kd [3]: 0.64 nM

LQACARAFAARKHFS [myosin II IQ motif]
binding to EhCaBP5 (in words) (EhCaBP5 [4]): does not bind

B1: EhCaBP5: calcium binding protein 5 from E. histolytica (accession number EAL46660) (protein)
chain: MQKHNEDLKESFLLFDGDGDGYLTLNEFESLVRVLGVVMETSAIASTYNSNSKVRGMSYELFTSCFSQLKTKSFNKDEIKTAINVLDKDKKGFIPAIELRRILSTIGDNMEQKEITDLFTFMGIDEQGVVKVDDFINQLMTVFK
co-sedimentation with / binding to F-actin (in words) (F-actin): No significant amount of EhCaBP5 was observed in the pellet fraction containing F-actin; also recorded: does not bind F-actin
co-precipitation of myosin 1B (in words) (myosin 1B): precipitated myosin 1B along with EhCaBP5 even in the presence of EGTA
number of Ca^2+ binding sites [5]: one
